From patent US20260191907A1 (INSTITUT CURIE, published 2026)

T1: Recombinant FGFR3 (G&P Biosciences) (UniProt P22607 23-375, limits assumed)
T1 construct: Immobilised on the SPR chip
T1 sequence (looked up): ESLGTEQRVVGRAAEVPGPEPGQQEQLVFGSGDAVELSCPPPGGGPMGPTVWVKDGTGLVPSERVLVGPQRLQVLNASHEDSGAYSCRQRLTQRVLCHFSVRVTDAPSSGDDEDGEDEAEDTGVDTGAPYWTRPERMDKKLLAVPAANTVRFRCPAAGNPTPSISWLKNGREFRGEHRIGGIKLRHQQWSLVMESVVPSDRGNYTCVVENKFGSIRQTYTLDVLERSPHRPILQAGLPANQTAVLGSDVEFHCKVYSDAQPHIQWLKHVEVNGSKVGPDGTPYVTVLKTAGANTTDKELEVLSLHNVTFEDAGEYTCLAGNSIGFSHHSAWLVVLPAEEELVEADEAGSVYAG

T2: Recombinant FGFR4 (G&P Biosciences) (human, UniProt P22455 22-369)
T2 construct: Bought protein; the SPR method says only 'Recombinant; also called rFGFR4; extracellular FGFR4
T2 sequence: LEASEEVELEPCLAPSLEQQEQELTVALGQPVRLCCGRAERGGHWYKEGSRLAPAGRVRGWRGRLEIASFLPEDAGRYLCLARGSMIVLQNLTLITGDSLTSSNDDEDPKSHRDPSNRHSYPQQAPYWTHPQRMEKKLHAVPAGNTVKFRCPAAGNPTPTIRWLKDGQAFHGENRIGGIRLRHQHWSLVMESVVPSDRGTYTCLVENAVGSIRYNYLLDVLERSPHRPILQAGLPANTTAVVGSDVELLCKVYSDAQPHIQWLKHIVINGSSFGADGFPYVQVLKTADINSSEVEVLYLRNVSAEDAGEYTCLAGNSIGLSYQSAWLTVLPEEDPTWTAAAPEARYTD

B1: B5 nanobody (anti-FGFR4 sdAb, NaLi-H1 library) (VHH)
VHH: EVQLQASGGGFVQPGGSLRLSCAASGRTSWLTTMGWFRQAPGKEREFVSAISSFSSKQGYYADSVKGRFTISRDNSKNTVYLQMNSLRAEDTATYYCAYASYPRHQGNGRWKDFVEYWGQGTQVTVSS
notes: Recombinant nanobody of about 17 kDa; also called B5 sdAb; not shown: C-terminal Myc/6xHis-tag and an additional cysteine
B2: F8 nanobody (anti-FGFR4 sdAb, Gimli library) (VHH)
VHH: EVQLVESGGGLVQPGGSLRLSCAASGTGYALDDMGWVRQAPGKGLEWVSAISDDESMADYYADSVKGRFTISRDNSKNTVYLQMNSLRAEDTAVYYCASYKEYKYQSGHHYFAYRGQGTLVTVSS
notes: Recombinant nanobody of about 17 kDa; also called F8 sdAb; not shown: C-terminal Myc/6xHis-tag and an additional cysteine
B3: B1 nanobody (anti-FGFR4 sdAb, NaLi-H1 library) (VHH)
VHH: EVQLQASGGGFVQPGGSLRLSCAASGYTSRSSAMGWFRQAPGKEREFVSAISDLTGYPYYYADSVKGRFTISRDNSKNTVYLQMNSLRAEDTATYYCAAYQDDKWTYGSQHGKYWGQGTQVTVSS
notes: also called B1 sdAb; not shown: C-terminal Myc/6xHis-tag and an additional cysteine
B4: A8 nanobody (anti-FGFR4 sdAb, NaLi-H1 library) (VHH)
VHH: EVQLQASGGGFVQPGGSLRLSCAASGRTYSRDTMGWFRQAPGKEREFVSAISSRHSHTTYYADSVKGRFTISRDNSKNTVYLQMNSLRAEDTATYYCAEWDVFDMHYALPPMWYWGQGTQVTVSS
notes: also called A8 sdAb; not shown: C-terminal Myc/6xHis-tag and an additional cysteine

These binders were tested against T3, FGFR1 expressed on Rh4-FR4ko cells (UniProt P11362 22-822, limits assumed) (assay: flow cytometry on Rh4-FR4ko cells, which express FGFR1 and FGFR2).
T3 construct: whole, on cells; also called FGFR1 on Rh4 cells
Description: The cells were incubated for 1 h with nanobodies at 10 μM (A8, B1, B5, F8, mCh) followed by stimulation of FGFR4 with 50 nM FGF19 for 10 min. Control cells (C) were either not stimulated or stimulated with FGF19 in absence of the nanobodies. The cell lysates were analysed by western blot with anti phospho ERK1/2 antibody. Total Erk1/2 levels are shown as loading control.
Binding validation of selected phages, recombinant nanobodies and decorated liposomes was performed on Rh4-FR4 wt and Rh4-FR4ko cells. Specificity of selected phage clones binding to FGFR4 was determined by flow cytometry in 96-well plates (Becton Dickinson). Cell surface staining of Rh4-FR4 wt or Rh4-FR4ko cells was performed on ice in PBS supplemented with 1% FBS. 80 μL phages+20 μL PBS/1% milk were incubated on 1×10⁵ cells for 1 h on ice. […] Samples were analyzed after two washes by flow cytometry on a MACSQuant® cytometer (Miltenyi) and results were analyzed with FlowJo™ software (BD Biosciences, France). Phages displaying anti-mCherry nanobodies were used as negative control²⁴ and as positive control we used an anti-FGFR4 antibody (BT53, kindly provided by J. Khan lab, NCI, Bethesda, MD). For binding test of recombinant nanobodies, cells were detached with Accutase® (Stemcell Technologies) and washed with PBS. All following steps were performed on ice: 4×10⁵ cells were incubated with nanobody concentrations of 30 μg/ml for 1 h, washed once with PBS and incubated for an additional 30 min with anti His-tag FITC labeled antibody (LS-C57341, LSBioscience, diluted 1:10). The cells were washed once more with PBS and analyzed. Targeting liposomes were added at 0.5 mM final lipid concentration to cells in 96-well plates and incubated for 2 h at 37° C. and 5% CO₂. The cells were washed twice with PBS and detached with Accutase®.
Validation of the binding of recombinant nanobodies to cell-surface expressed FGFR4 was performed with Rh4-FR4 wt and Rh4-FR4ko cells by flow cytometry.

Row | binding result | Binder
1 | no binding (tested: 30 µg/ml) | B1
2 | no binding (tested: 30 µg/ml) | B2
3 | no binding (tested: 30 µg/ml) | B3
4 | no binding (tested: 30 µg/ml) | B4

The binders below were run against T1, Recombinant FGFR3 (G&P Biosciences) (assay: SPR, FGFR3 immobilised, nanobody as analyte at five concentrations).
Description: (§1) Single cycle kinetics analysis was performed with the BIAcore® T200 instrument (GE Healthcare) on CMD200M sensor chips (XanTec bioanalytics GmbH) activated with a mixture of 300 mM NHS (N-hydroxysuccinimide) and 50 mM EDC (N-ethyl-N′-(dimethylaminopropyl) carbodiimide). Recombinant FGFR1, FGFR2, FGFR3 and FGFR4 (G&P Biosciences) were immobilized on the activated biosensors (800 to 12′000 RU; 1 RU=1 pg/mm²) followed by a blocking step with 1M ethanolamine. One flow channel per chip was used as a reference to provide background corrections. The nanobodies were injected at 5 different concentrations followed by a dissociation phase. Koff-rates were determined from a final dissociation step after the last injection. The measurements with FGFR4 were performed for each nanobody on freshly immobilized protein due to strong binding and incomplete dissociation from the surface. Immobilization flow rate was 5 μl/min and binding studies were performed at 30 μl/min. Binding parameters were determined with the heterogeneous ligand model fit of the BIAevaluation software. The black curves represent the measured data and red curves show the performed fit analysis.
To determine the binding affinity of the nanobodies to FGFR4, we performed surface plasmon resonance (SPR) spectroscopy with recombinant FGFR4. As already mentioned above, FGFR1 and FGFR2 are expressed on Rh4-FR4ko cells and flow cytometry analysis indicated no binding of the nanobodies to the cells. To further confirm FGFR4-specificity, we included also affinity measurements with recombinant FGFR1, FGFR2 and FGFR3. Nanobodies A8, B1, B5, F8, and mCh were injected in five different concentrations on a FGFR coated chip. Except for the negative control mCh, calculated KD values for FGFR4 binding were in the nano- and picomolar range (FIG. 3; Table 2). Affinity parameters could not be fitted with a 1:1 binding model and best fits were obtained with the heterogeneous ligand model of the BIAevaluation software resulting in two KD values for each candidate.

Row | binding result | Binder
5 | no binding | B1
6 | no binding | B2
7 | no binding | B3
8 | no binding | B4

The binders below were run against T2, Recombinant FGFR4 (G&P Biosciences) (assay: SPR (BIAcore T200), single cycle kinetics, FGFR4 amine-immobilised, nanobody as analyte, heterogeneous ligand model, component 2 (koff2)).
Description: FIG. 3: Affinity determination of nanobodies to recombinant protein via surface plasmon resonance spectroscopy. Single cycle kinetics analysis was performed on immobilized FGFR4 through covalent amine binding on the dextran based sensor chip. The analytes A8, B1, B5, F8 and mCh were injected in 5 different concentrations followed by a dissociation phase. A final dissociation step was added after the last injection step to determine Koff rates for the KD calculations. The black curves represent the measured data and red curves show the fit analysis (heterogeneous ligand model) performed with the BIAevaluation software.
as §1
To determine the binding affinity of the nanobodies to FGFR4, we performed surface plasmon resonance (SPR) spectroscopy with recombinant FGFR4. As already mentioned above, FGFR1 and FGFR2 are expressed on Rh4-FR4ko cells and flow cytometry analysis indicated no binding of the nanobodies to the cells. […]

Row | koff [s⁻¹] | Binder
9 | 0.00557 | B2
10 | 0.000992 | B3
11 | 0.00245 | B4
